Data: patent US20130302329A1, “DIAGNOSTIC TESTS FOR IMMUNE REACTIVITY WITH HUMAN ENDOTHELIAL CELL GROWTH FACTOR” (TRUSTEES OF BOSTON UNIVERSITY, priority 2010, published 2013)

Key:
PBMC [1] = assay: Retest of peptides with the patient's own PBMC: IFN-γ secretion; type: cell-based, human; settings: PBMC of patient LA1, second assay
From the text: Only two peptide sets (set 33 and set 40) induced proliferation responses that were >2 times background (FIG. 2). Enough cells remained for retesting the first set together and the second peptide set individually. In the second assay, only one peptide induced proliferation and IFN-γ secretion that were >2 times background. This peptide (^340LGRFERMLAAQGGVDPG^355) (SEQ ID NO:1), 1 of the 16 identified by only one of the three search programs, originated from the source protein platelet-derived endothelial cell growth factor (ECGF), also called thymidine phosphorylase or gliostatin.

PBMC [2] = assay: Testing of subjects' PBMC with commercially available recombinant ECGF; type: cell-based, human
Experimental: Initially, subjects' PBMC were tested using commercially available recombinant ECGF. […] Consequently, three HLA-DR T-cell epitope prediction algorithms (Wang et al., PLoS Computat. Biol. e1000048 (2008)), were used to identify seven ECGF peptides, including the one peptide identified in the initial patients' sample (ECGF340-365), that were predicted to be presented by the HLA-DR molecules associated with antibiotic-refractory Lyme arthritis. These peptides were synthesized and tested for autoreactivity via IFN-γ ELISPOT assays using patient and control PBMC (FIG. 3). Based upon the values obtained in 14 healthy control subjects (FIG. 3), a positive T cell response was defined as a stimulation index (no. of spots induced by an ECGF peptide /no. of spots in no antigen controls) 3 standard deviation (SD) above the mean of healthy controls, which characteristically gave >40 spot forming units (SFU)/10^6 PBMC and a stimulation index of >8.

Row | Molecule | IFN-γ secretion relative to background (PBMC [1]) | effect on thymidine incorporation (PBMC [2]; actively dividing cells) | IFN-γ secretion by PBMC (PBMC [2]; subjects' PBMC)
1 | LGRFERMLAAQGVDPG (listed as Homo sapiens) [SEQ ID NO:1, ECGF peptide (index case), HLA-DR-presented, identified in LA1 synovial sample] | > 2 times background | – | –
2 | ECGF: commercially available recombinant human platelet-derived endothelial cell growth factor, also called thymidine phosphorylase or gliostatin (protein, UniProt P19971 11-482, looked up) Thymidine phosphorylase: APPAPGDFSGEGSQGLPDPSPEPKQLPELIRMKRDGGRLSEADIRGFVAAVVNGSAQGAQIGAMLMAIRLRGMDLEETSVLTQALAQSGQQLEWPEAWRQQLVDKHSTGGVGDKVSLVLAPALAACGCKVPMISGRGLGHTGGTLDKLESIPGFNVIQSPEQMQVLLDQAGCCIVGQSEQLVPADGILYAARDVTATVDSLPLITASILSKKLVEGLSALVVDVKFGGAAVFPNQEQARELAKTLVGVGASLGLRVAAALTAMDKPLGRCVGHALEVEEALLCMDGAGPPDLRDLVTTLGGALLWLSGHAGTQAQGAARVAAALDDGSALGRFERMLAAQGVDPGLARALCSGSPAERRQLLPRAREQEELLAPADGTVELVRALPLALVLHELGAGRSRAGEPLRLGVGAELLVDVGQRLRRGTPWLRVHRDGPALSGPQSRALQEALVLSDRAPFAAPSPFAELVLPPQQ | – | inhibited thymidine incorporation into actively dividing cells | non-specifically induced PBMC to secrete IFN-γ
